Data taken from patent US20180312587A1 (ADURO BIOTECH HOLDINGS EUROPE B V, published 2018).

What was measured:
Assay in all cases: CELISA, CHO-K1 transfectants; average of two experiments
human SIRPα variant 1 = molecular target: T1, human SIRPα variant 1 (human, UniProt P78324 31-504)
T1 construct: full length ORF on transfected CHO-K1 or HEK293 cells; entry includes the signal peptide; also called hSIRPαV1; SIRPαV1
Description: (§1) The binding specificity of antibody hSIRPα.50A to hSIRPα was compared antibody KWAR23 (Canadian Patent 2939293 A1), in a CELISA format. CHO-K1 cells were transiently transfected with hSIRPαV1, hSIRPαV2, hSIRPβ1, and hSIRPγ (GenBank accession: NM_018556.3) (SEQ ID NO: 39) cDNAs. Subsequently, hSIRPα binding was assessed by CELISA using CHO-K1.hSIRPαV1, CHO-K1.hSIRPαV2, CHO-K1.hSIRPβ1, and CHO-K1.hSIRPγ cells. Detection of bound antibody was performed with goat-anti-mouse IgG-HRP (Southern Biotech) for mouse antibodies including hSIRPα.50A and control antibodies or, alternatively, with goat-anti-human IgG-HRP conjugate (Jackson Immuno Research) for the KWAR23 antibody. KWAR23 (SEQ ID NO: 130; SEQ ID NO: 131) was expressed as a chimeric human IgG4 kappa antibody in CHO cells. As shown in FIG. 2 and the following Table 9, KWAR23 antibody cross-reacts with all members of the SIRP receptor family tested: it binds to hSIRPαV1, hSIRPαV2, hSIRPβ1, and hSIRPγ.
(§2) In addition, the specificity of hSIRPα.50A for all known of hSIRPα alleles (allelic variants as described by Takenaka et al., 2007, Nat Immunol. 8:1313-1323) was further investigated by CELISA using the same strategy as above. To this end, hSIRPα.50A binding was assessed using CHO-K1 cells that were transiently transfected with cDNAs encoding full length hSIRPαV1, hSIRPαV2, hSIRPαV3 (NA07056_V3) (SEQ ID NO: 43), hSIRPαV4 (NA11832_V4) (SEQ ID NO: 45), hSIRPαV5 (NA18502_V5) (SEQ ID NO: 47), hSIRPαV6 (NA18507_V6) (SEQ ID NO: 49), hSIRPαV8 (NA18570_V8) (SEQ ID NO: 51), and hSIRPαV9 (NA18943_V9) (SEQ ID NO: 53).

hSIRPαV8 (NA18570_V8) = molecular target: T2, hSIRPαV8 (NA18570_V8) (human, UniProt P78324 31-504)
T2 construct: also called human SIRPαV8
T2 sequence (P78324 other isoform, or with tags, fused parts or gaps limits assumed): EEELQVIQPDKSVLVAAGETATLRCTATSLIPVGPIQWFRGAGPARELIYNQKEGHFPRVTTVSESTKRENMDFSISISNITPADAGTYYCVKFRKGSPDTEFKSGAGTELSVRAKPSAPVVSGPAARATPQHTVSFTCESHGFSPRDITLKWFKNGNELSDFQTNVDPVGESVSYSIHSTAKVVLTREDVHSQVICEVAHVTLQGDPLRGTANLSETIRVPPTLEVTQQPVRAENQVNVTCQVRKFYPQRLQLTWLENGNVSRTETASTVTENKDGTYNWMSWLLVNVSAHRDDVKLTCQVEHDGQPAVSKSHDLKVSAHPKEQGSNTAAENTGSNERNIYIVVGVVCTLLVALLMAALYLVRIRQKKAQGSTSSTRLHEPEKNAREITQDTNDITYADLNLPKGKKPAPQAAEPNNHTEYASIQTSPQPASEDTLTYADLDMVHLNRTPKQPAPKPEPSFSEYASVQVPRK
Description: as §1, §2

hSIRPαV4 (NA11832_V4) = molecular target: T3, hSIRPαV4 (NA11832_V4) (human, UniProt P78324 31-504)
T3 construct: also called human SIRPαV4
T3 chain: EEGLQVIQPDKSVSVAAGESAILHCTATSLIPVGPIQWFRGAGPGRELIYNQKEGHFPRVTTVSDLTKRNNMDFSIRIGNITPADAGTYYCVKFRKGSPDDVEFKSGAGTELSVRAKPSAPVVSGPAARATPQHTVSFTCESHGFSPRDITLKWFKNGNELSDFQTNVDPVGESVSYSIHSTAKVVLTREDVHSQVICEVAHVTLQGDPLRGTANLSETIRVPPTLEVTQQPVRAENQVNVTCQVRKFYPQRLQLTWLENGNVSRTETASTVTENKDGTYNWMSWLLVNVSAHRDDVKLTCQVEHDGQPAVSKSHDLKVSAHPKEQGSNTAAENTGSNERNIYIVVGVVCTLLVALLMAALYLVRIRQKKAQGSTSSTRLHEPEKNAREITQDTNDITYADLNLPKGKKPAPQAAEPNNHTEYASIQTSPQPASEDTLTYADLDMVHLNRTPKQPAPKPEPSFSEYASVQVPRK
Description: as §1, §2

hSIRPαV6 (NA18507_V6) = molecular target: T4, hSIRPαV6 (NA18507_V6) (human, UniProt P78324 31-504)
T4 construct: also called human SIRPαV6
T4 sequence (P78324 31-504 S105P limits assumed): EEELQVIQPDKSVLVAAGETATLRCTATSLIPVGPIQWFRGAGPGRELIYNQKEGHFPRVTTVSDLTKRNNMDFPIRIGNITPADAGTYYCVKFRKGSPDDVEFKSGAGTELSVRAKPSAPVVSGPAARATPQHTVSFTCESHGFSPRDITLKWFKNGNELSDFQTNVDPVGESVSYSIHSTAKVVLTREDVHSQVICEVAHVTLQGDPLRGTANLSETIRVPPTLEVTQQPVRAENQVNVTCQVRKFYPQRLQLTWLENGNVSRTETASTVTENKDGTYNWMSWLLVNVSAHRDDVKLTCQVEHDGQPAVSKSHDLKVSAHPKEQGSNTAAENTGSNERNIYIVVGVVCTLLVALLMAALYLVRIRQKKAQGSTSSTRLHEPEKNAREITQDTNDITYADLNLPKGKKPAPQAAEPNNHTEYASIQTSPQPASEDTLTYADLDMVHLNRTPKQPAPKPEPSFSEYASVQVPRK
Description: as §1, §2

hSIRPαV5 (NA18502_V5) = molecular target: T5, hSIRPαV5 (NA18502_V5) (human, UniProt P78324 31-504)
T5 construct: also called human SIRPαV5
T5 sequence (P78324 other isoform, or with tags, fused parts or gaps limits assumed): as the sequence (P78324 31-504 S105P limits assumed) above, with S12F, P75S counted along it
Description: as §1, §2

human SIRPα variant 2 = molecular target: T6, human SIRPα variant 2 (human, UniProt P78324 31-504)
T6 construct: full length ORF on transfected CHO-K1 cells; also called hSIRPαV2; SIRPαV2
T6 sequence (P78324 other isoform, or with tags, fused parts or gaps mutant limits assumed): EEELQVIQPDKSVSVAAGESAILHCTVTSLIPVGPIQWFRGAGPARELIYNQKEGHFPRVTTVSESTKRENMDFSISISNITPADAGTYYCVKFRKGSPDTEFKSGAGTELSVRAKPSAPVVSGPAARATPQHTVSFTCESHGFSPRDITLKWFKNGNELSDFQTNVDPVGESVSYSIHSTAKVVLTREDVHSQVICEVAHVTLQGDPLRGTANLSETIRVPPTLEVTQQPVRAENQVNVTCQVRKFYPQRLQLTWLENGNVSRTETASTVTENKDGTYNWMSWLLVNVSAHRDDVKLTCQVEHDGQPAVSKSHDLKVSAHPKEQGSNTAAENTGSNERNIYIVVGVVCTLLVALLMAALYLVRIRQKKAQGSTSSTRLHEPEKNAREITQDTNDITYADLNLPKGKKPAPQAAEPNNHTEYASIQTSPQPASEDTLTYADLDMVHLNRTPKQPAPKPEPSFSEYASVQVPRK
Description: as §1, §2

hSIRPαV9 (NA18943_V9) = molecular target: T7, hSIRPαV9 (NA18943_V9) (human, UniProt P78324 31-504)
T7 construct: also called human SIRPαV9
T7 sequence (P78324 31-504 G109S limits assumed): as the sequence (P78324 31-504 S105P limits assumed) above, with P75S, G79S counted along it
Description: as §1, §2

hSIRPαV3 (NA07056_V3) = molecular target: T8, hSIRPαV3 (NA07056_V3) (human, UniProt P78324 31-504)
T8 construct: also called human SIRPαV3
T8 sequence (P78324 other isoform, or with tags, fused parts or gaps limits assumed): as the sequence (P78324 other isoform, or with tags, fused parts or gaps mutant limits assumed) above, with H24L counted along it
Description: as §1, §2

T1 sequence (P78324 31-504 limits assumed, change not shown): as the sequence (P78324 31-504 S105P limits assumed) above, with P75S counted along it

- EC50 (human SIRPα variant 1): 0.936 nM
- EC50 (hSIRPαV8 (NA18570_V8)): 0.644 nM
- EC50 (hSIRPαV4 (NA11832_V4)): 0.824 nM
- EC50 (hSIRPαV6 (NA18507_V6)): 0.954 nM
- EC50 (hSIRPαV5 (NA18502_V5)): 0.765 nM
- EC50 (human SIRPα variant 2): 0.665 nM
- EC50 (hSIRPαV9 (NA18943_V9)): 0.733 nM
- EC50 (hSIRPαV3 (NA07056_V3)): 0.688 nM
B1: hSIRPα.50A (antibody, V domains shown)
VH: QVQLQQSGPELVKPGASVRISCKASGFTFTNYYIHWVKQRPGQGLEWIGWIYPGNVNTKYNEKFKAKATLTADKSSTTAYMQLSSLASEDSAVYFCARPTIIATDFDVWGAGTTVTVSS
VL: DIVMTQSHKFMSTSVGDRVNITCKASQGVGTAVGWYQQKPGQSPRLLIYWASTRHTGVPDRFTGSGSGTDFSLAISNVQSEDLADYFCQQYSTYPFTFGGGTNLEIK
notes: light chain constant domain not tied; also called mouse hSIRPα.50A; hSIRPα.50A.mIgG1
